From US20240325564A1, “PHARMACEUTICAL COMPOSITION CONTAINING ANTI-TROP2 ANTIBODY DRUG CONJUGATE AND ITS APPLICATION” (JIANGSU HENGRUI PHARMACEUTICALS CO., LTD., priority 2021, published 2024)
Changes are numbered by the printed parent chain.

T1: TROP-2 expressed on cells (UniProt P09758 27-323, limits assumed)
T1 sequence (looked up): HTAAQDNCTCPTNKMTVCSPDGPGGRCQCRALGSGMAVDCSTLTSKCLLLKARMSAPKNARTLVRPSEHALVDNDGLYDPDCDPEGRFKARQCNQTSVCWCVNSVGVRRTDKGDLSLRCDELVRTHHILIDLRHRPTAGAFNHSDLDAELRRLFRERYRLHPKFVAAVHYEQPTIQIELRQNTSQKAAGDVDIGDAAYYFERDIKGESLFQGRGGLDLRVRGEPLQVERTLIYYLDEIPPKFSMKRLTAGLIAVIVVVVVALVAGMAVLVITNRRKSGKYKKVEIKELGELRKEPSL

B1: PD3 anti-TROP2 antibody (antibody, human IgG1, kappa, V domains shown)
VH: EVQLVQSGSELKKPGASVKVSCKASGYTFTNYGMNWVKQAPGQGLKWMGWINTYTGEPTYTQDFKGRFAFSLDTSVSTAYLQISSLKAEDTAVYYCARGGFGSSYWYFDVWGQGTLVTVSS
VL: DIQLTQSPSSLSASVGDRVSITCKASQDVSIAVAWYQQKPGKAPKLLIYSASYRYTGVPDRFSGSGSGTDFTLTISSLQPEDFAVYYCQQHYITPLTFGAGTKVEIKR
B2: TINA antibody (constructed according to WO2015098099A1) (antibody, human IgG1, kappa, V domains shown)
VH: QVQLVQSGAEVKKPGASVKVSCKASGYTFTTAGMQWVRQAPGQGLEWMGWINTHSGVPKYAEDFKGRVTISADTSTSTAYLQLSSLKSEDTAVYYCARSGFGSSYWYFDVWGQGTLVTVSS
VL: B1 VL with L4M, S20T, I31T, D60S, A100Q, V104L
B3: ADC-4 (TINA-58) (antibody, human IgG1, kappa, V domains shown)
VH: B2 VH
VL: B1 VL with L4M, S20T, I31T, D60S, A100Q, V104L
modifications: compound 58 (linker-drug) conjugated after TCEP reduction of the antibody; average n=3.99 per antibody (UV-Vis); sites not stated
B4: ADC-5 (PD3-58) (antibody, human IgG1, kappa, V domains shown)
VH: B1 VH
VL: B1 VL
modifications: compound 58 (linker-drug) conjugated after TCEP reduction of the antibody; average n=3.88 per antibody (UV-Vis); sites not stated
B5: ADC-7 (hRS7-9-A) (antibody, human IgG1, kappa, V domains shown)
VH: B1 VH with E1Q, V5Q, Q62D, E89D, Y95F, T115S
VL: B1 VL
modifications: compound 9-A (linker-drug) conjugated after TCEP reduction of the antibody; average n=3.72 per antibody (UV-Vis); sites not stated
B6: hRS7 (control anti-TROP-2 antibody, constructed according to WO03074566) (antibody, human IgG1, kappa, V domains shown)
VH: B1 VH with E1Q, V5Q, Q62D, E89D, Y95F, T115S
VL: B1 VL

What was measured:
Assay in all cases: cell-based or functional assay
[1] = molecular target: T1, TROP-2 expressed on cells
[2] = molecular target: T1, TROP-2 expressed on cells; remark: listed apart in the source
[3] = molecular target: T1, TROP-2 expressed on cells; remark: listed apart in the source

Row | Binder | EC50, antibody endocytic activity (DT3C cell killing, CTG) [1] | Emax, antibody endocytic activity (DT3C cell killing, CTG) [1] | EC50, killing activity on Colo205(++) cells [2] | EC50, killing activity on DMS53(++) cells [2] | EC50, killing activity on FaDu(+++) cells [2] | EC50, killing activity on HCC827(+++) cells [2] | Emax, killing activity on Colo205(++) cells [2] | Emax, killing activity on DMS53(++) cells [2] | Emax, killing activity on FaDu(+++) cells [2] | Emax, killing activity on HCC827(+++) cells [2] | Emax, killing activity on SK-OV-3(+) cells [2] | also measured
1 | B1 | 0.15 nM | 99.1% |  |  |  |  |  |  |  |  |  | 
2 | B2 | 0.18 nM | 98.7% |  |  |  |  |  |  |  |  |  | 
3 | B3 |  |  | 59.8 nM | 75.6 nM | 0.53 nM | 0.27 nM | 99.7% | 89.8% | 101% | 88.2% | 49.1% | 
4 | B4 |  |  |  |  |  |  |  |  |  |  |  | EC50, killing activity on Colo205 cells (second parallel assay) [3]: 25.6 nM; EC50, killing activity on DMS53 cells (second parallel assay) [3]: 25.7 nM; EC50, killing activity on FaDu cells (second parallel assay) [3]: 0.14 nM; EC50, killing activity on HCC827 cells (second parallel assay) [3]: 0.13 nM
5 | B5 |  |  | 52.8 nM | 72.9 nM | 0.31 nM | 0.18 nM | 99.5% | 88.7% | 101% | 89.3% | 66.1% | 
6 | B6 | 0.18 nM | 98.5% |  |  |  |  |  |  |  |  |  | 
